Results on three molecules are retold here after patent US20220323599A1 (CELGENE, published 2022).

Like-named read-outs stand apart in the source and are kept apart here.

Assay [1] has as its target T1, human BCMA on cells (endogenous on multiple myeloma cell lines; stably transfected 293T-hBCMA) (human, UniProt Q02223 1-184).
T1 sequence: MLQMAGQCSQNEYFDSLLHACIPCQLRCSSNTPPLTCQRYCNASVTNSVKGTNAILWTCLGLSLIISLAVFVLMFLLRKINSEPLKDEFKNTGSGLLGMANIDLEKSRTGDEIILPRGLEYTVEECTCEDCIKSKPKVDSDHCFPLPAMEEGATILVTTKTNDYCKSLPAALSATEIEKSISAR
Put plainly: cell-based or functional assay.

Assay [2] deals with T2, cynomolgus BCMA on stably transfected 293T cells (cynomolgus monkey, UniProt Q02223 1-184 (human entry)). Briefly: FACS cell binding, 293T-cynoBCMA cells.
T2 sequence (Q02223 other isoform, or with tags, fused parts or gaps): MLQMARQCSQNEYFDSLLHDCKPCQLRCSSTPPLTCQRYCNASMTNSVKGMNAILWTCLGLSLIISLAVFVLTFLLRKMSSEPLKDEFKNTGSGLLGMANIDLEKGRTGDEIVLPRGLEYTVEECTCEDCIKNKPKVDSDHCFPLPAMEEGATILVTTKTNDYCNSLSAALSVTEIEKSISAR
Assay [3] deals with T1, human BCMA on cells (endogenous on …). Put plainly: FACS cell binding, NCI-H929 (BCMA+) cells.
Assay [4] deals with T3, cyno BCMA-Fc (custom protein production) (cynomolgus monkey, UniProt Q02223 1-54 (human entry)).
T3 construct: also called cynomolgus BCMA-Fc; not shown: Fc part of the fusion protein, not described
Briefly: SPR (Biacore), antibody captured on anti-Fab or anti-Fc surface, cyno BCMA-Fc as analyte, 25 C. (Surface plasmon resonance follows binding to a sensor surface in real time, without labels.)

In assay [5] the target is T4, human BCMA-Fc (R&D Systems) (human, UniProt Q02223 1-54).
T4 construct: Bought protein; not shown: Fc part of the bought fusion protein, not described
T4 sequence: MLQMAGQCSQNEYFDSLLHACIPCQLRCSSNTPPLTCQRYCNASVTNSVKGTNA
Briefly: SPR (Biacore), antibody captured on anti-Fab or anti-Fc surface, human BCMA-Fc as analyte, 25 C.

Assay [6] concerns the target T1, human BCMA on cells (endogenous on …). Briefly: flow cytometry, ARP-1 cells. For orientation: A flow cytometer gives signals particle by particle.
Assay [7] shares this target. Put plainly: flow cytometry, MM.1S cells.
For assay [8] the target is unchanged. Put plainly: flow cytometry, OPM-2 cells.
Assay [9] shares this target. Put plainly: flow cytometry, RPMI-8226 cells.
Assay [10] has as its target T2, cynomolgus BCMA on stably transfected …. Put plainly: flow cytometry, 293T-cBCMA cells.
Assay [11] addresses T1, human BCMA on cells (endogenous on …). Put plainly: flow cytometry, 293T-hBCMA cells.
The target of assay [12] is T5, mouse BCMA on transfected HEK293T cells (mouse, UniProt O88472 1-185).
T5 sequence: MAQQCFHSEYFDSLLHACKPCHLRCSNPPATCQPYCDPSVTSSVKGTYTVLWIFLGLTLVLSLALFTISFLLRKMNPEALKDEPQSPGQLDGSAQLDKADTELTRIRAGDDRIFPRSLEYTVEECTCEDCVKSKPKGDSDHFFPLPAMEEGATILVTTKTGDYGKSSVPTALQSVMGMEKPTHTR
Briefly: flow cytometry on 293T-mBCMA cells.

Assay [13] has as its target T1, human BCMA on cells (endogenous on …). Put plainly: flow cytometry, NCI-H929 cells; NCI-H929 cells.
The target is the same in assay [14]. Briefly: cell-based or functional assay. This is another data set of the same source.
For assay [15] the target is unchanged. Put plainly: cell-based or functional assay. The source holds these as a separate data set.
Assay [16] has the same target. Put plainly: cell-based or functional assay. The source holds these as a separate data set.
The target is the same in assay [17]. Briefly: cell-based or functional assay. This is another data set of the same source.
For assay [18] the target is unchanged. Briefly: flow cytometry, U266B1 cells.
The target is the same in assay [19]. Put plainly: flow cytometry, NCI-H929 cells.
For assay [20], the target named is T6, human TACI on stably transfected 293T cells (human, UniProt O14836 1-293).
T6 construct: whole, on cells; also called TNFRSF13B
T6 sequence (looked up): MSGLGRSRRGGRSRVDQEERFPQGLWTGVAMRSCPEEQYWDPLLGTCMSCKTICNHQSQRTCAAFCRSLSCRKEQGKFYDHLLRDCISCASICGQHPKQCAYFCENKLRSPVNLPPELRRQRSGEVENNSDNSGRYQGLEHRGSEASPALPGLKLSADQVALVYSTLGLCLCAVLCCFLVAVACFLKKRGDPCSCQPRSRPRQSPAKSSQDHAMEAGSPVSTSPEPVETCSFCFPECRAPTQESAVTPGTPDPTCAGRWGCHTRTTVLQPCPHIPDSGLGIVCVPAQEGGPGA
Briefly: flow cytometry on 293T cells stably expressing human TACI.

Assay [21] concerns the target T7, human BAFF-R on stably transfected 293T cells (human, UniProt Q96RJ3 1-184).
T7 construct: whole, on cells; also called TNFRSF13C
Put plainly: flow cytometry on 293T cells stably expressing human BAFF-R.

B1: 2265-F02 (Fab-HC Variant ID; Antibody 4), cell-free expressed His- and FLAG-tagged IgG1 used in screening (antibody, V domains shown)
VH: EVQLVESGGGLVQPGGSLRLSCAASGFNISAPGIHWVRQAPGKGLEWVGFINPAGGYTDYADSVKGRFTISADTSKNTAYLQMNSLRAEDTAVYYCARDYIRQYWTYVLDYWGQGTLVTVSS
VL: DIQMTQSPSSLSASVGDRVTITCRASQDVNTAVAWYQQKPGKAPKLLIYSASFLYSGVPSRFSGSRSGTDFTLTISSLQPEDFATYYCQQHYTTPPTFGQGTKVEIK
As for B1, in [1], the “ARP-1, Conjugate M 2° antibody cell killing, EC50” value stood at 1.9 nM and the “U266B1, Conjugate M 2° antibody cell killing, EC50” value was 0.9 nM. In addition, the Kd (commonly the constant that tells how readily two partners part at equilibrium) in assay [2] was determined as 6.2 nM. Moreover, the Kd in assay [3] was determined as 5.2 nM. In assay [4], the Kd was found to be 3.68 nM; the koff (usually the first-order rate constant of dissociation) stood at 0.00116 s⁻¹; the kon – broadly, the rate constant with which the complex forms – is 315000 M⁻¹ s⁻¹. In [5], binding was characterised by a dissociation constant (Kd) of 0.499 nM, the koff was determined as 0.000293 s⁻¹ and the kon was 587000 M⁻¹ s⁻¹.

B2: 2265-F02 Y180/F404 (unconjugated Ab), unconjugated antibody version of Conjugate 4 (antibody, human IgG1, kappa, V domains shown)
VH: EVQLVESGGGLVQPGGSLRLSCAASGFNISAPGIHWVRQAPGKGLEWVGFINPAGGYTDYADSVKGRFTISADTSKNTAYLQMNSLRAEDTAVYYCARDYIRQYWTYVLDYWGQGTLVTVSS
VL: not shown
modifications: p-azidomethyl-phenylalanine (pAMF) replacing HC-Y180 and HC-F404 by EU numbering (actual positions 186 and 410 as printed)
notes: Aglycosylated humanized IgG1
As for B2, the Kd was 1 nM in [6]; 0.9 nM in [7]; 1.3 nM in assay [8]; 1.3 nM in [9]; 2.8 nM in assay [10]; 2.1 nM in [11]. This molecule also came in with a Kd in [13] of 0.9 nM. Further, in assay [12], the binding result is recorded as “no binding (tested: titrated from 200 nM)”.

B3: Conjugate 4: Antibody 2265-F02 conjugated to a non-cleavable maytansine warhead (Conjugate M) at Y180/F404 site (DAR4) (antibody, human IgG1, kappa, V domains shown)
VH: EVQLVESGGGLVQPGGSLRLSCAASGFNISAPGIHWVRQAPGKGLEWVGFINPAGGYTDYADSVKGRFTISADTSKNTAYLQMNSLRAEDTAVYYCARDYIRQYWTYVLDYWGQGTLVTVSS
VL: not shown
modifications: p-azidomethyl-phenylalanine (pAMF) at HC-Y180 and HC-F404 by EU numbering (actual positions 186 and 410 as printed), each linked to the non-cleavable maytansinoid drug-linker (Conjugate M); DAR 4
notes: also called Conjugate 4 ADC; BCMA ADC Conjugate 4
As for B3, in assay [14], the “cell killing EC50, NCI-H929, Experiment 1” value came out at 0.8 nM; the “cell killing EC50, NCI-H929, Experiment 2” value is 0.8 nM; the “cell killing EC50, OPM2, Experiment 1” value was determined as 1.7 nM; the “cell killing EC50, OPM2, Experiment 2” value was 1.8 nM. Also, in assay [14], the “cell killing EC50, U266B1, Experiment 1” value was determined as 0.8 nM and the “cell killing EC50, U266B1, Experiment 2” value worked out at 0.9 nM. Besides, in [15], the “cell killing EC50, NCI-H929, Experiment 1” value stood at 0.7 nM; the “cell killing EC50, NCI-H929, Experiment 2” value is 0.8 nM; the “cell killing EC50, OPM2, Experiment 1” value worked out at 1.7 nM; the “cell killing EC50, OPM2, Experiment 2” value worked out at 2 nM. Besides, in assay [15], the “cell killing EC50, U266B1, Experiment 1” value turned out to be 0.7 nM and the “cell killing EC50, U266B1, Experiment 2” value was 0.8 nM. In assay [16], the “cell killing EC50, ARP-1, no competing reagent” value is 0.7 nM; the “cell killing EC50, NCI-H929, no competing reagent” value is 0.9 nM; the “cell killing EC50, OPM2, no competing reagent” value turned out to be 3.3 nM; the “cell killing EC50, U266B1, no competing reagent” value amounted to 0.9 nM. Also, in [17], the “cell killing EC50, ARP-1” value was found to be 0.7 nM; the “cell killing EC50, MM.1S” value was found to be 0.82 nM; the “cell killing EC50, NCI-H929” value was found to be 0.8 nM; the “cell killing EC50, OPM-2” value is 2.1 nM. Moreover, the “cell killing EC50, U266B1” value in assay [17] was determined as 0.86 nM. The molecule further gave a Kd in assay [6] of 1.2 nM. Further, the Kd in [7] turned out to be 1.6 nM. Moreover, the Kd in assay [8] was 2.3 nM. In assay [18], the Kd amounted to 3.9 nM. This molecule also displayed a Kd in assay [19] of 2.4 nM. In assay [9], binding was put at a Kd of 1.8 nM. This molecule had a Kd in assay [10] of 2.7 nM. Moreover, the binding result in assay [12] is listed as “no binding (tested: titrated from 200 nM)”. Besides, the binding result in assay [20] is “no binding (tested: 67 nM)”. Besides, in assay [21], the binding result is “no binding (tested: 67 nM)”.
